In publication PMC8136791, “In vivo targets of Salmonella FinO include a FinP-like small RNA controlling copy number of a cohabitating plasmid”:

B1: RepX (structured_RNA)
RNA: GGGCAUUGAUUGCCUCCUUUGCAGGCAGUUGGUGGUUAGGCGCUGGCGGGGUCACUACCCCCGCCCUGCGCCGCUCU
B2: FinP (structured_RNA)
RNA: GGGACACAUAGGAACCUCCUCAAAGGAUUCUAUGGACAGUCGAUGCAGGGAGUGACAGCUCCCUGUAUCGGCGAUUUU

Molecular target: FinO (Salmonella enterica SL1344 (virulence …, UniProt A0A0H3P176 1-187))
Experiment: EMSA; yeast RNA 1 ug/reaction; apparent Kd; 25 mM Tris-HCl pH 7.4, 150 mM NaCl, 1 mM MgCl2, 1 ug yeast RNA/reaction, 4 nM labeled RNA, 37 C, 1 h (EMSA) or 30 min (filter binding)
Conditions: protein: recombinant, tags: His6-3C (expression plasmid pMiG007-His6-3C-FinO), label: 32P (5' end; 3' pCp alternative for probing)

Binder | Kd (FinP-like stem-loops, short 3' tail) [nM] | Kd (two stem-loops (SLI, SLII) with 3' U tail) [nM]
B1 | ~500 | 
B2 |  | ~500
